Assay results reported in patent US20120269817A1 (Bayer, published 2012).
Changes are numbered by the printed parent chain.

T1: human tissue factor pathway inhibitor (TFPI) (human, UniProt P10646 29-304, limits assumed)
T1 sequence (looked up): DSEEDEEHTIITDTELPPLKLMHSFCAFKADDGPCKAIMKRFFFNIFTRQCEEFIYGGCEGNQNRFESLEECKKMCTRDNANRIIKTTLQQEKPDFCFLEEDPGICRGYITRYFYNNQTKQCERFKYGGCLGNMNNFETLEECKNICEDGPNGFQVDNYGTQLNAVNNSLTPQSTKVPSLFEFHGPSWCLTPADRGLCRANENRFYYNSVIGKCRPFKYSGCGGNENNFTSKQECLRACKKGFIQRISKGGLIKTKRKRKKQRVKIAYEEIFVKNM

T2: mouse tissue factor pathway inhibitor (TFPI) (mouse, UniProt O54819 29-289, limits assumed)
T2 construct: Bought protein; also called mouse TFPI; mTFPI
T2 sequence (looked up): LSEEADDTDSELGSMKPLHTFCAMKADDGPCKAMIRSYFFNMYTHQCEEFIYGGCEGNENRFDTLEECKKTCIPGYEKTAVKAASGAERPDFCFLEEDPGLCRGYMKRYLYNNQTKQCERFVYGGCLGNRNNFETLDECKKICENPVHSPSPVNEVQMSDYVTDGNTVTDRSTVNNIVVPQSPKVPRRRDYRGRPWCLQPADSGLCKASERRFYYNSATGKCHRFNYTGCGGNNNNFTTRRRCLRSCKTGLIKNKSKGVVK

B1: TP-3C2 Fab (Fab, V domains shown)
VH: QVQLQQSGPGLVKPSQTLSLTCAISGDSVSSSSAAWSWIRQSPGRGLEWLGMIYYRSKWYNHYAVSVKSRITINPDTSKNQFSLQLNSVTPEDTAVYYCARGGSGVMDVWGQGTLVTVSS
VL: DIQMTQSPSSLSASVGDRVTITCRASQSITNYLNWYQQKPGKAPKLLIYDVSNLQSGVPSRFSGSGSGTDFTLTISSLQPEDFAVYYCQQYSGYPLTFGQGTKVEIKR
notes: Human Fab from HuCal Gold, expressed in E. coli TG1
B2: TP-2G6 Fab (Fab, V domains shown)
VH: B1 VH with M52I, H62D, G102H, G103S, S104M, G105V, V106G, M107F
VL: DIVLTQSPATLSLSPGERATLSCRASQYVTSSYLAWYQQKPGQAPRLLIYGSSRATGVPARFSGSGSGTDFTLTISSLEPEDFATYYCQQYSSSPITFGQGTKVEIKR
notes: as for B1
B3: TP-2A8 Fab (Fab, V domains shown)
VH: QVQLVESGGGLVQPGGSLRLSCAASGFTFRSYGMSWVRQAPGKGLEWVSSIRGSSSSTYYADSVKGRFTISRDNSKNTLYLQMNSLRAEDTAVYYCARKYRYWFDYWGQGTLVTVSS
VL: DIELTQPPSVSVAPGQTARISCSGDNLRNYYAHWYQQKPGQAPVVVIYYDNNRPSGIPERFSGSNSGNTATLTISGTQAEDEADYYCQSWDDGVPVFGGGTKLTVLG
notes: Human Fab from HuCal Gold, expressed in E. coli TG1; also called Fab-2A8
B4: TP-2H10 Fab (Fab, V domains shown)
VH: QVQLQQSGPGLVKPSQTLSLTCAISGDSVSSNGAAWGWIRQSPGRGLEWLGFIYRRSKWYNSYAVSVKSRITINPDTSKNQFSLQLNSVTPEDTAVYYCARQDGMGGMDSWGQGTLVTVSS
VL: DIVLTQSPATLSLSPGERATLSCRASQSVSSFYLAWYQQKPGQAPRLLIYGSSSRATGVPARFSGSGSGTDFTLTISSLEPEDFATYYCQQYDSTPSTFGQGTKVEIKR
notes: as for B1
B5: TP-2G5 Fab (Fab, V domains shown)
VH: QVQLQQSGPGLVKPSQTLSLTCAISGDSVSSNSAAWSWIRQSPGRGLEWLGFIYYRSKWYNDYAVSVKSRITINPDTSKNQFSLQLNSVTPEDTAVYYCARHNPDLGFDYWGQGTLVTVSS
VL: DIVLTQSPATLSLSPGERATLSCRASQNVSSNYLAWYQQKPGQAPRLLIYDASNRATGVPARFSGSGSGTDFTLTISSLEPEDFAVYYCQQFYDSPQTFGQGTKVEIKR
notes: as for B1
B6: TP-2A5.1 Fab (Fab, V domains shown)
VH: QVQLVESGGGLVQPGGSLRLSCAASGFTFSSYGSWVRQAPGKGLEWVSVISGSGSSTYYADSVKGRFTISRDNSKNTLYLQMNSLRAEDTAVYYCARVNISTHFDVWGQGTLVTVSS
VL: DIELTQPPSVSVAPGQTARISCSGDNIPEKYVHWYQQKPGQAPVLVIHGDNNRPSGIPERFSGSNSGNTATLTISGTQAEDEADYYCQSFDAGSYFVFGGGTKLTVLG
notes: as for B1
B7: TP-3B4 Fab (Fab, V domains shown)
VH: QVQLQQSGPGLVKPSQTLSLTCAISGDSVSSNGAAWGWIRQSPGRGLEWLGHIYYRSKWYNSYAVSVKSRITINPDTSKNQFSLQLNSVTPEDTAVYYCARWGGIHDGDIYFDYWGQGTLVTVSS
VL: B1 VL with S28N, T30S, D50G, V51T, N53S, S92G, G93N, Y94N, L96T
notes: as for B1
B8: TP-3B3 Fab (Fab, V domains shown)
VH: QVQLVESGGGLVQPGGSLRLSCAASGFTFSSYGMHWVRQAPGKGLEWVSNISYMGSNTNYADSVKGRFTISRDNSKNTLYLQMNSLRAEDTAVYYCARGLFPGYFDYWGQGTLVTVSS
VL: DIELTQPASVSVAPGQTARISCSGDNLRSKYAHWYQQKPGQAPVLVIYGDNNRPSGIPERFSGSNSGNTATLTISGTQAEDEADYYCSAYAMGSSPVFGGGTKLTVLG
notes: as for B1
B9: TP-3C3 Fab (Fab, V domains shown)
VH: QVQLQQSGPGLVKPSQTLSLTCAISGDSVSSNSAAWGWIRQSPGRGLEWLGVIYYRSKWYNDYAVSVKSRITINPDTSKNQFSLQLNSVTPEDTAVYYCARARAKKSGGFDYWGQGTLVTVSS
VL: B1 VL with T30N, N31P, D50A, V51A, Y91L, S92D, G93N, Y94R, P95S, L96I
notes: as for B1
B10: TP-3D3 Fab (Fab, V domains shown)
VH: QVQLVESGGGLVQPGGSLRLSCAASGFTFSSYASWVRQAPGKGLEWVSGISGDGSNTHYADSVKGRFTISRDNSKNTLYLQMNSLRAEDTAVYYCARYDNFYFDVWGQGTLVTVSS
VL: DIELTQPPSVSVAPGQTARISCSGDSLGSKFAHWYQQKPGQAPVLVIYDDSNRPSGIPERFSGSNSGNTATLTISGTQAEDEADYYCSTYTSRSHSYVFGGGTKLTVLG
notes: as for B1
B11: TP-3E1 Fab (Fab, V domains shown)
VH: QVQLVESGGGLVQPGGSLRLSCAASGFTFSNYAMTWVRQAPGKGLEWVSVISSVGSNTYYADSVKGRFTISRDNSKNTLYLQMNSLRAEDTAVYYCARPTKAGRTWWWGPYMDVWGQGTLVTVSS
VL: DIELTQPPSVSVAPGQTARISCSGDNIGSYYAYWYQQKPGQAPVLVIYDDSNRPSGIPERFSGSNSGNTATLTISGTQAEDEADYYCQSYDSTGLLVFGGGTKLTVLG
notes: as for B1
B12: TP-3F2 Fab (Fab, V domains shown)
VH: QVQLVESGGGLVQPGGSLRLSCAASGFTFSSYSMHWVRQAPGKGLEWVSGISYSSSFTYYADSVKGRFTISRDNSKNTLYLQMNSLRAEDTAVYYCARALGGGVDYWGQGTLVTVSS
VL: DIELTQPPSVSVAPGQTARISCSGDNLPSKSVYWYQQKPGQAPVLVIYGDNNRPSGIPERFSGSNSGNTATLTISGTQAEDEADYYCQSWTSRPMVVFGGGTKLTVLG
notes: as for B1
B13: TP-3H2 Fab (Fab, V domains shown)
VH: QVQLVESGGGLVQPGGSLRLSCAASGFTFNSYYMSWVRQAPGKGLEWVSNISSSGSNTNYADSVKGRFTISRDNSKNTLYLQMNSLRAEDTAVYYCARVHYGFDFWGQGTLVTVSS
VL: DIELTQPPSVSVAPGQTARISCSGDKLGKYYAYWYQQKPGQAPVLVIYGDSKRPSGIPERFSGSNSGNTATLTISGTQAEDEADYYCSSAAFGSTVFGGGTKLTVLG
notes: as for B1
B14: TP-4A7 Fab (Fab, V domains shown)
VH: QVQLVESGGGLVQPGGSLRLSCAASGFTFRNYAMNWVRQAPGKGLEWVSVISGSSSYTYYADSVKGRFTISRDNSKNTLYLQMNSLRAEDTAVYYCARADLPYMVFDYWGQGTLVTVSS
VL: B11 VL with N26A, I27L, Y30K, Y31F, Y33H, N52E, S89A, T93G, G94L, L96Y
notes: as for B1

Molecular target: T3, BSA (bovine, UniProt P02769 25-607)
T3 construct: also called bovine serum albumin
Test: ELISA
Protocol: (§1) To select antibody clones that bind to human TFPI, Fab genes of the phage clones from the second and third round of panning were subcloned into a bacterial expression vector and expressed in E. coli strain TG1. The bacterial lysate was added to the wells of the human TFPI-coated Maxisorp plates. After washing, HRP-conjugated goat anti-human Fab was used as a detection antibody and the plates were developed by adding AmplexRed (Invitrogen) with hydrogen peroxide. A signal of at least five-fold higher than the background was considered as positive. The cross reactivity of the anti-human TFPI antibodies to mouse TFPI was determined by a similar mouse TFPI-binding ELISA. The plates were coated with mouse TFPI (R&D System), BSA and lysozyme. The later two antigens were used as negative controls.

T3 sequence (P02769 25-607 limits assumed): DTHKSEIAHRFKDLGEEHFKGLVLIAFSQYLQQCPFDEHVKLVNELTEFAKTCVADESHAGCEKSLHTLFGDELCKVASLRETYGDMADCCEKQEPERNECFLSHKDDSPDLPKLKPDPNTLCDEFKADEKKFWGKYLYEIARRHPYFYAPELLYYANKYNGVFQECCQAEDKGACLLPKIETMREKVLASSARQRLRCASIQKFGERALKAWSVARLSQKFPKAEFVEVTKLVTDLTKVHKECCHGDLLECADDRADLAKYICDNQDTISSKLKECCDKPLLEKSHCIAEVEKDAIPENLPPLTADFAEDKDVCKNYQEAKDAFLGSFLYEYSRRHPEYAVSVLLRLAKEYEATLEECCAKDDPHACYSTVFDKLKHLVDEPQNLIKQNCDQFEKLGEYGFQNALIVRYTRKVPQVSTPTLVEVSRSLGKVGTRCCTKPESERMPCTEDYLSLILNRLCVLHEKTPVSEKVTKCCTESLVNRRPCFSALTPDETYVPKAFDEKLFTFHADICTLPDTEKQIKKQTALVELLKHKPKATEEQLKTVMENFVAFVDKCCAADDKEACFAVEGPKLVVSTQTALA

| binding result | Binder |
| --- | --- |
| no binding | B1 |
| no binding | B2 |
| no binding | B3 |
| no binding | B4 |
| no binding | B5 |
| no binding | B6 |
| no binding | B7 |
| no binding | B8 |
| no binding | B9 |
| no binding | B10 |
| no binding | B11 |
| no binding | B12 |
| no binding | B13 |
| no binding | B14 |

Molecular target: T1, human tissue factor pathway inhibitor …
Test: cell-based or functional assay

| % inhibition of hTFPI activity | dPT in hemoA plasma | Binder |
| --- | --- | --- |
| 92% | 68.9 s | B1 |
| 86% | 62.8 s | B2 |
| 100% | 57.9 s | B3 |
| 63% | 79.5 s | B4 |
| 36% | 73.2 s | B5 |
| 30% | 70.8 s | B6 |
| 25% | 69.1 s | B7 |

Molecular target: T1, human tissue factor pathway inhibitor …
Test: ELISA, Fab on coated TFPI
Protocol: as §1
(§2) Purified Fab antibodies were used to determine EC₅₀ of anti-TFPI antibodies to human or mouse TFPI. EC₅₀ was assessed in an ELISA, similarly as described above. The results were analyzed using SoftMax. The binding affinity of anti-TFPI antibodies was determined in a Biacore assay. Briefly, the antigen, either human or mouse TFPI, was immobilized on the CM5-chips using the amine coupling kit (GE HealthCare) according to the instructions of the manufacturer. The amount of immobilized TFPI was adjusted to the mass of the antigen to give approximate 300 RU. The antibody Fabs were analyzed in mobile phase and at least five different concentrations (0.1, 0.4, 1.6, 6.4 and 25 nM) of the purified antibodies were used in the Biacore assay. The kinetics and binding affinity were calculated using Biacore T100 Evaluation software.

| EC50 | Binder |
| --- | --- |
| 59 nM | B1 |
| 0.48 nM | B2 |
| 0.09 nM | B3 |
| 2.18 nM | B4 |
| 343 nM | B5 |
| 28.6 nM | B6 |
| 35.8 nM | B7 |

Molecular target: T2, mouse tissue factor pathway inhibitor …
Test: ELISA, Fab on coated TFPI
Protocol: as §1, §2

| EC50 | Binder |
| --- | --- |
| 957 nM | B1 |
| 5.18 nM | B2 |
| 0.06 nM | B3 |
| 32.4 nM | B4 |
| 871 nM | B5 |
| 14.5 nM | B6 |
| 34.6 nM | B7 |

Molecular target: T1, human tissue factor pathway inhibitor …
Test: ELISA, Fab lysate on coated human TFPI
Protocol: as §1

| binding result | Binder |
| --- | --- |
| binds | B8 |
| binds | B9 |
| binds | B10 |
| binds | B11 |
| binds | B12 |
| binds | B13 |
| binds | B14 |

Molecular target: T1, human tissue factor pathway inhibitor …
Test: Biacore, TFPI on CM5 chip, Fab in mobile phase
Protocol: as §2

| Kd | Binder |
| --- | --- |
| 17.1 nM | B1 |
| 5.06 nM | B2 |
| 1.25 nM | B3 |
| 10.2 nM | B4 |
| 42.1 nM | B5 |
| 35.4 nM | B6 |
| 14.1 nM | B7 |

Molecular target: T2, mouse tissue factor pathway inhibitor …
Test: Biacore, TFPI on CM5 chip, Fab in mobile phase
Protocol: as §2

| Kd | Binder |
| --- | --- |
| 28.5 nM | B1 |
| 46.1 nM | B2 |
| 3.08 nM | B3 |
| 11.5 nM | B4 |
| 16.1 nM | B5 |
| 19.6 nM | B6 |
| 20.4 nM | B7 |
